Earlier results, collected in article PMC3208733.
pKd: −log10 of the molar value. “And” between values parts separate entries of the source, which are not always exact repeats. Equal entries are not always repeated.

Target: scaffolding protein (Salmonella phage P22) (UniProt P26748)

**Q.** With “scaffolding protein (from UniProt P26748)” as the substance, how does the pKd read?
**A.** 4.11 and 3.77
